Experimental data taken from IntAct's records for PubMed 29039417.

B1: BBSome complex member BBS4 (Homo sapiens), Q96RK4 (parent)
chain: MAEERVATRTQFPVSTESQKPRQKKAPEFPILEKQNWLIHLHYIRKDYEACKAVIKEQLQETQGLCEYAIYVQALIFRLEGNIQESLELFQTCAVLSPQSADNLKQVARSLFLLGKHKAAIEVYNEAAKLNQKDWEISHNLGVCYIYLKQFNKAQDQLHNALNLNRHDLTYIMLGKIHLLEGDLDKAIEVYKKAVEFSPENTELLTTLGLLYLQLGIYQKAFEHLGNALTYDPTNYKAILAAGSMMQTHGDFDVALTKYRVVACAVPESPPLWNNIGMCFFGKKKYVAAISCLKRANYLAPFDWKILYNLGLVHLTMQQYASAFHFLSAAINFQPKMGELYMLLAVALTNLEDIENAKRAYAEAVHLDKCNPLVNLNYAVLLYNQGEKKNALAQYQEMEKKVSLLKDNSSLEFDSEMVEMAQKLGAALQVGEALVWTKPVKDPKSKHQTTSTSKPASFQQPLGSNQALGQAMSSAAAYRTLPSGAGGTSQFTKPPSLPLEPEPAVESSPTETSEQIREK
partner: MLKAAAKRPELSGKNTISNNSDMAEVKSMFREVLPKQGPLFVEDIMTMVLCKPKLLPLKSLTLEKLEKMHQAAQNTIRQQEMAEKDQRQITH

Variants of: B1
Settings: with bbip1_human BBIP1, A8MTZ0

Effect of a mutation on the interaction, with no effect:
A476E
Q385A
N377A
K423E
Q460A
A477E
M420E
A345E
Q466E
G311A
K446E
S445K
S445E
K401A
G386K
V374A
M472A
M472E
K388A
K388E
A433K
Q459K
P494K
P498K
Q394A
T452A
L405E
L405A
A426E
T512A
T437A
Q448E
S409A
T480K
L367K
L367A
E387A
L343K
T488E
N375K
S513E
K454A
G425K
Q515E
M398K
L411K
L499E
S508K
S489E
L497K
L497A
P509K
W436K
P503K
P503A
P461A
P461E
A296K
D368E
Q396E
Q396A
G486E
L293E
L293A
A427K
Y341K
R359K
N390A
A391K
S322K
L351E
K358E
A323E
V440A
T510K
T510A

Effect of a mutation on the interaction, disrupting interaction strength:
N377S
N377R
A421V
P301L
I331F
P372L
L312T
D368G
N332I
A323V
A323T
